Results published in IntAct's records for PubMed 14668441.

Molecular target: arnt_human ARNT (UniProt P27540)

How did the “effect of a mutation on the interaction” value turn out when “Endothelial PAS domain-containing protein 1 (Homo sapiens), Q99814 Q322E;M338E;Y342T” was run?
Its value is “disrupting interaction strength”.
